According to the supplement of paper PMC9170038:

Test system: MS2 coat protein
Experiment: apparent KD of MS2 coat protein; designed switch direction (-1 OFF switch, 1 ON switch): -1; higher = weaker reporter binding
Summary of the method: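 The apparent KD reported per design is the median over clusters of curve fits to normalised cluster fluorescence. The RNA switches were transcribed on Illumina chips by stalled E. coli RNA polymerase. SNAP-549-labelled MS2 coat protein was titrated from 0.7 or 1.5 nM, doubling up to 3 µM, in Tris-HCl pH 7.5 buffer containing KCl, MgCl2, BSA, DTT, tRNA and Tween-20, with no input, 200 uM small-molecule ligand, or an oligonucleotide input.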

[1] = Eterna round: R95, input ligand: microRNA oligo, concentration not stated
[2] = input ligand: microRNA oligo, concentration not stated
[3] = Eterna round: R95, input ligand: FMN 200 uM
[4] = Eterna round: R95, input ligand: none

Sequence | apparent KD of MS2 coat protein (input ligand: FMN 200 uM) [nM] | apparent KD of MS2 coat protein (input ligand: none) [nM] | further results
AUAAUGUGAGGAUAUCGAGACUACUGCUGCGGCAGUAGUCUCGAGAAGGCACAUGAGGAUCACCCAUGUGAUCA [E4/2-A3] (Eterna round: R97, puzzle: Exclusion 4) | 89.7 | 1590 | 
AUAAUUAGAGGAUAUGGUACAUUGCACAUGAGGAUCACCCAUGUAAGGUGACCCAUGUCGCCAGAAGGCUGAUAUG [Eternabot (L2) Solution 46] (Eterna round: R97, puzzle: Exclusion 5) | 3460 | 460 | 
AUACCACGAGGAUAUCGUCUAUAAUACAUGAGGAUCACCCAUGUUAUAUAUGUAAUGUUUCGAGAAGGCGUGUUUU [JR_E5_Sub082] (puzzle: Exclusion 5) |  |  | apparent KD of MS2 coat protein [1]: 14.7 nM
AUACCACGAGGAUAUCGUCUAUUCCACAUGAGGAUCACCCAUGUUAUCCAUGUUUCGUUUCGAGAAGGCGUGUUUU [JR_E5_Sub075] (puzzle: Exclusion 5) |  |  | apparent KD of MS2 coat protein [1]: 54.1 nM
AUACGCCAGGUAGGAUAUAGUACGUCGGCAACAUGAGGAUCACCCAUGUGGCCUCGUGUCUGGCACUAGAAGGGCCGAGGCCUU [Raatalave] (Eterna round: R96, puzzle: Exclusion NG 2) | 33.5 | 30.9 | apparent KD of MS2 coat protein [2]: 26.2 nM
AUACUCGAAGGAUAUGUGUAAGAGUACAUGAGGAUCACCCAUGUCCUAAGCACUUGGACGGCAGAAGGUCGACUGU [Eternabot (L2) Solution 36] (Eterna round: R97, puzzle: Exclusion 5) | 57.7 | 25.1 | 
AUAGUAUAGCAAGGAUAUCGAUUUAGUUUGUUACGAGAAGGUGCUUUAGUUUAUACCUCUUGUUUACAUGAGGAUCACCCAUGU [JR_ExcNG1_Sub048] (Eterna round: R96, puzzle: Exclusion NG 1) |  |  | apparent KD of MS2 coat protein [2]: 19.4 nM
AUAUUAACAUAGGAUAUCGAAUUUAUCAUUUAACGAGAAGGAUGAACAUGAGGAUCACCCAUGUGGUAUCAUGG [Mat - Exclusion 6 - JL Mod - D1] (puzzle: Exclusion 6) |  |  | apparent KD of MS2 coat protein [3]: 171 nM; apparent KD of MS2 coat protein [1]: 144 nM; apparent KD of MS2 coat protein [4]: 249 nM
AUAUUAAUAGUAAGGAUAUGCGUGUGUGUAGUUAUGCAGAAGGUACAUGAGGAUCACCCAUGUAUUAAUGUGUG [LRO-BmodExc4-08-Oppy's Opus] (Eterna round: R97, puzzle: Brourd's mod of Exclusion 4) | 18 | 19.7 | 
AUAUUACGAGGAUAUCGUCUCUCCCACAUGAGGAUCACCCAUGUUAUCCAUGUUUCGUUUCGAGAAGGCGUAAGUU [JR_E5_Sub071] (puzzle: Exclusion 5) |  |  | apparent KD of MS2 coat protein [1]: 65.2 nM
AUAUUACGAGGAUAUCGUUUUUUUCACAUGAGGAUCACCCAUGUUAUUUAUGUUUCGUUUCGAGAAGGCGUAAGUU [JR_E5_Sub069] (puzzle: Exclusion 5) |  |  | apparent KD of MS2 coat protein [1]: 22.3 nM
AUAUUGAUAGUAAGGAUAUGCGUGUGUGUAGUGAUGCAGAAGGUACAUGAGGAUCACCCAUGUAUUAAUGUGUG [LRO-BmodExc4-10-Oppy's Opus] (Eterna round: R97, puzzle: Brourd's mod of Exclusion 4) | 20.5 | 16.7 | 
AUAUUUAAUAUAGGAUAUAGGAAGAAUGAUGAACUAGAAGGAUAACAUACAUGAGGAUCACCCAUGUCCCAUGUGAUCACCCAU [Seems to work in some way] (Eterna round: R96, puzzle: Exclusion NG 1) |  |  | apparent KD of MS2 coat protein [2]: 257 nM
AUCAAAGAAUAUCAUAAGCACAUGAGGAUCACCCAUGUGAUGGGUGAGAGCCUGAAAGCCACUUCUGCUCGUCUUAU [Cac Sensor turn off var1 sub9] (Eterna round: R97, puzzle: Sensor, turn-off variant 1) | 969 | 883 | 
AUCAGCUCGUCAGGAUAUGAACAUGAGGAUCACCCAUGUAAGAUCAAGCUGCUUCGGCAGCAAGUUCAGAAGGGACGAGCUGAU [ENG2/10-B3] (Eterna round: R96, puzzle: Exclusion NG 2) | 169 | 112 | apparent KD of MS2 coat protein [2]: 93.3 nM
AUCAUGGGAGGAUAUCACCUAUGUUACAUGAGGAUCACCCAUGUGAGACUAAAUGACUGCUGAGAAGGCUCAACGC [Eternabot (Original) Solution 25] (Eterna round: R97, puzzle: Exclusion 5) | 205 | 234 | 
AUCCUACAUGAGGAUCACCCAUGUCAGGAUAUCCAAGAAAUCUGGCCGUAUCGGCCAGGGAGAAGGGACAUGGU [jl-ex1-4.63 ViennaUCT mod] (Eterna round: R97, puzzle: Exclusion 1) | 85.3 | 49 | 
AUCCUUAACAAGGAUAUCGGGCGGGAAAUUGUUUGAGAAGGUGUAACAUGAGGAUCACCCAUGUGGCGCGUGGA [-20.8, -18.9 kcal, A 28%] (Eterna round: R97, puzzle: Exclusion 6) | 54.6 | 56.6 | 

Sequence | apparent KD of MS2 coat protein (input ligand: FMN 200 uM) [nM] | apparent KD of MS2 coat protein (input ligand: none) [nM] | further results
AUCUUGUAAGGAUAUCUGACAAGUGACGAAAGUCACAGUUCAGAGAAGGUACAUGAGGAUCACCCAUGUAGAAC [Ex4-3: 41] (puzzle: Exclusion 4) |  |  | apparent KD of MS2 coat protein [1]: 15.9 nM
AUGACAGGACAUGAGGAUCACCCAUGUACACGACCAAUGACCGAGGAUAUCGAUUGCAUGCAGGUCGAGAAGGCGGAGUAUCCA [Eternabot solution 3] (Eterna round: R96, puzzle: Exclusion NG 3) | 18.2 | 28.1 | apparent KD of MS2 coat protein [2]: 30.9 nM
AUGACCUAAGGAUAUACAUGAGGAUCACCCAUGUCAGGUAAGCCUGUCCGCGGUGCAUGUAGAAGGUAGCUACC [EX3 A.27] (Eterna round: R97, puzzle: Exclusion 3) | 122 | 116 | 
AUGAGCAGACGGAGAUCCAACAUGAGGAUCACCCAUGUCUCAAAAGCUUUUUGCUCAUCUUAUUGUACCUUGGUGCG [Mat - Sensor v3 - turn-off var 1 - JL Mod - D18] (puzzle: Sensor v3, turn-off variant 1) |  |  | apparent KD of MS2 coat protein [3]: 161 nM; apparent KD of MS2 coat protein [1]: 9.21 nM; apparent KD of MS2 coat protein [4]: 170 nM
AUGAUGUUAGGAUAUCAUUGCCGGGUUUGAAAACACGGGAUUGAGAAGGAACAUGAGGAUCACCCAUGUGCCUC [EX4 C.9] (Eterna round: R97, puzzle: Exclusion 4) | 118 | 27.5 | 
AUGCCCUGAGGAUAUCUCAUCCCGCACAUGAGGAUCACCCAUGUUCUUCUCCGGGUUUCGAGAGAAGGCAGGCCUA [Armus4] (Eterna round: R97, puzzle: Exclusion 5) | 79.4 | 249 | 
AUGCCGCUAGGAUAUUGCAGCUGAUACAUGAGGAUCACCCAUGUGACUCGCUGGGUAGUGUAAGAAGGAGUGUGCU [Eternabot (L2) Solution 27] (Eterna round: R97, puzzle: Exclusion 5) | 21.3 | 24 | 
AUGGAAGAGCAAUAGCUCUACAUGAGGAUCACCCAUGUAGGAAAUACUGGGUACAGCGGGCUUUUUGCUCGGCUUAU [Alacar Attempt 4] (Eterna round: R97, puzzle: Sensor, turn-off variant 1) | 364 | 412 | 
AUGGGUCCUCACGGAGCUACAUGAGGAUCACCCAUGUGGAUUGAGGAUAUCGUAAGCCGACGGCACGAGAAGGCAGUUUACUGU [Ex NG3 #97] (Eterna round: R96, puzzle: Exclusion NG 3) | 47.5 | 23.5 | apparent KD of MS2 coat protein [2]: 22.8 nM
AUGGGUCCUCUCGGAGCUACAUGAGGAUCACCCAUGUGUAUUGAGGAUAUCCACUGCUCAGGACUGGAGAAGGCAGUGUACUGU [Ex NG3 #88] (Eterna round: R96, puzzle: Exclusion NG 3) | 56.2 | 59.9 | apparent KD of MS2 coat protein [2]: 33.5 nM
AUGUUACAUGAGGAUCACCCAUGUCAGGAUAUCUAUCAUAGCAUAGAAAUAUGCGGGUAGAGAAGGGACUAUCC [ChP Ext 10-04-2015 #5] (puzzle: Exclusion 1) |  |  | apparent KD of MS2 coat protein [1]: 14.7 nM
AUUACAUGAGGAUAUACAUGAGGAUCACCCAUGUAAAUAGCAGUGGUAGUCAACUCGAGUAGAAGGCGUAACGU [Eternabot (L1) Solution 51] (Eterna round: R97, puzzle: Exclusion 3) | 67.8 | 58.7 | 
AUUAUACAUGUAGGAUAUCUGCACGUUUAGUGCAGAGAAGGACAUGAGGAUCACCCAUGUAGAUCAAUAAUAAUUAAUUUAAUU [ENG1/6-B2] (Eterna round: R96, puzzle: Exclusion NG 1) | 889 | 202 | apparent KD of MS2 coat protein [2]: 203 nM
AUUAUAUAGUCAGGAUAUAGAAUAUUAUUUUAACAUGAGGAUCACCCAUGUAACCUUAUGUGUAGCUAGAAGGGACAUUUAUUA [Title] (Eterna round: R96, puzzle: Exclusion NG 2) |  |  | apparent KD of MS2 coat protein [2]: 76.6 nM
AUUAUGUAAGGAUAUCUUACAUGUGACUUCGGUCACUGUUCAGAGAAGGUACAUGAGGAUCACCCAUGUAGAAC [Ex4-3: 46] (puzzle: Exclusion 4) |  |  | apparent KD of MS2 coat protein [1]: 18 nM
AUUAUGUUAGGAUAUGCUUAUGGUGGAUAAUCGGAUAUGAUGCAGAAGGGACAUGAGGAUCACCCAUGUACUGU [EX4 #23] (Eterna round: R97, puzzle: Exclusion 4) | 21.5 | 22.1 | 
AUUCAACAUGAGGAUCACCCAUGUGAGGAUAUGCGAGUGCAGACUUCGGUUUGAUAGAGCAGAAGGCGCAGGUA [EX1 #13] (Eterna round: R97, puzzle: Exclusion 1) | 69.6 | 30.8 | 
